Source: the supplement of paper PMC9233669
Fewer inactive variants are shown than the library holds.

Key:
[1] = system: biotinyl-Phe-oxazolone; assay: self-aminoacylation, catalytic enhancement (BFO) (fold over background); higher = more active; k-Seq, kA / k0A0; sequences stand for … in GGGAAUGGAUCCACAUCUACGAAUUC…UUCACUGCAGACUUGACGAAGCUG
Summary of the method: (§1)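 Working in 50 μL HEPES/NaCl/KCl/MgCl2/CaCl2 buffer with 5% acetonitrile at pH 6.9–7.0, mutagenized RNA pools (0.43 μM; 21-nt variable region) were reacted with 2–1250 μM of each biotinyl-aminoacyl-oxazolone for 90 minutes at room temperature. Streptavidin capture followed, with quantification by triplicate qPCR and Illumina sequencing. Catalytic enhancement is reported as median kA over the uncatalyzed rate, the low-activity peak of a bimodal Gaussian fit to the data.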

[2] = system: biotinyl-Ile-oxazolone; assay: self-aminoacylation, catalytic enhancement (BIO) (fold over background); higher = more active; k-Seq, kA / k0A0; sequences stand for … in GGGAAUGGAUCCACAUCUACGAAUUC…UUCACUGCAGACUUGACGAAGCUG
Summary of the method: as §1

[3] = system: biotinyl-Met-oxazolone; assay: self-aminoacylation, catalytic enhancement (BMO) (fold over background); higher = more active; k-Seq, kA / k0A0; sequences stand for … in GGGAAUGGAUCCACAUCUACGAAUUC…UUCACUGCAGACUUGACGAAGCUG
Summary of the method: as §1

[4] = system: biotinyl-Val-oxazolone; assay: self-aminoacylation, catalytic enhancement (BVO) (fold over background); higher = more active; k-Seq, kA / k0A0; sequences stand for … in GGGAAUGGAUCCACAUCUACGAAUUC…UUCACUGCAGACUUGACGAAGCUG
Summary of the method: as §1

[5] = system: biotinyl-Leu-oxazolone; assay: self-aminoacylation, catalytic enhancement (BLO) (fold over background); higher = more active; k-Seq, kA / k0A0; sequences stand for … in GGGAAUGGAUCCACAUCUACGAAUUC…UUCACUGCAGACUUGACGAAGCUG
Summary of the method: as §1

[6] = system: biotinyl-Trp-oxazolone; assay: self-aminoacylation, catalytic enhancement (BWO) (fold over background); higher = more active; k-Seq, kA / k0A0; sequences stand for … in GGGAAUGGAUCCACAUCUACGAAUUC…UUCACUGCAGACUUGACGAAGCUG
Summary of the method: as §1

Row | Sequence | self-aminoacylation [1] | self-aminoacylation [2] | self-aminoacylation [3] | self-aminoacylation [4] | self-aminoacylation [5] | self-aminoacylation [6]
1 | AUUACCCGGGUCAUCGAGUCA [Fam2.1 aminoacylation ribozyme variant] | 1.05 | 1.29 | 1.32 | 1.16 | 1.22 | 0.967
2 | AUUACCCUACUCAUCGAGUGA [Fam2.1 aminoacylation ribozyme variant] | 35.1 | 3.24 | 7.19 | 3.19 | 6.54 | 9
3 | AUUACCCUAGGUCAUCGGGUG [Fam2.2 aminoacylation ribozyme variant] | 51.7 | 5.23 | 8.02 | 5.13 | 11.9 | 8.1
4 | AUUACCCUAGUAAUCGAGUGA [Fam2.1 aminoacylation ribozyme variant] | 46.5 | 3.08 | 6.75 | 3.18 | 7.45 | 9.47
5 | AUUACCCUAGUCAACGAGUGA [Fam2.1 aminoacylation ribozyme variant] | 25.6 | 3.09 | 5.11 | 3.26 | 5.35 | 6.9
6 | AUUACCCUAGUCAUAGAGUGA [Fam2.1 aminoacylation ribozyme variant] | 32.7 | 4.22 | 7.98 | 3.95 | 7.72 | 9.37
7 | AUUACCCUAGUCAUCCAGUGA [Fam2.1 aminoacylation ribozyme variant] | 3.4 | 1.91 | 2.29 | 1.94 | 2.86 | 3.28
8 | AUUACCCUAGUCAUCGAGUAA [Fam2.1 aminoacylation ribozyme variant] | 0.698 | 1.28 | 1.36 | 1.24 | 1.19 | 0.823
9 | AUUACCCUAGUCAUCGAGUGU [Fam2.1 aminoacylation ribozyme variant] | 6.11 | 1.95 | 2.47 | 1.95 | 2.55 | 2.62
10 | AUUACCCUAGUCAUCGGGUGA [Fam2.1 aminoacylation ribozyme variant] | 49.2 | 4.76 | 7.55 | 4.8 | 8.62 | 9.08
11 | AUUACCCUAGUCAUGGAGUGA [Fam2.1 aminoacylation ribozyme variant] | 15.5 | 2.79 | 4.31 | 2.68 | 4.06 | 5.17
12 | AUUACCCUCGUAAUCGAGUGA [Fam2.1 aminoacylation ribozyme variant] | 120 | 6.62 | 16 | 7.73 | 17.2 | 21.7
13 | AUUACCCUCGUCACCGAGUGA [Fam2.1 aminoacylation ribozyme variant] | 21.2 | 2.33 | 4.34 | 2.74 | 4.63 | 5.5
14 | AUUACCCUCGUCAUCGACUGA [Fam2.1 aminoacylation ribozyme variant] | 0.811 | 0.735 | 0.868 | 0.877 | 0.644 | 0.555
15 | AUUACCCUCGUCCUCGAGUGA [Fam2.1 aminoacylation ribozyme variant] | 34.7 | 2.48 | 4.67 | 2.4 | 5.49 | 6.18
16 | AUUACCCUCGUCUUCGAGUGA [Fam2.1 aminoacylation ribozyme variant] | 29.4 | 2.8 | 5.15 | 3.24 | 5.17 | 7.17
17 | AUUACCCUGAUCACCGAGUGA [Fam2.1 aminoacylation ribozyme variant] | 42.1 | 3.08 | 7.33 | 3.74 | 7.42 | 6.75
18 | AUUACCCUGAUCAUCGAGUAA [Fam2.1 aminoacylation ribozyme variant] | 1.09 | 1.25 | 1.33 | 1.32 | 1.02 | 0.877
19 | AUUACCCUGAUCAUCGAGUGU [Fam2.1 aminoacylation ribozyme variant] | 5.33 | 1.81 | 4.23 | 2.24 | 3.28 | 5.04
20 | AUUACCCUGAUCAUCGCGUGA [Fam2.1 aminoacylation ribozyme variant] | 99.5 | 5.83 | 14.7 | 7.01 | 14.1 | 14.9
21 | AUUACCCUGAUCAUCUAGUGA [Fam2.1 aminoacylation ribozyme variant] | 56.9 | 5.67 | 13.5 | 6.47 | 11.2 | 15.6
22 | AUUACCCUGAUCAUGGAGUGA [Fam2.1 aminoacylation ribozyme variant] | 53.6 | 4.86 | 10.8 | 4.92 | 10.5 | 13
23 | AUUACCCUGAUCGUCGAGUGA [Fam2.1 aminoacylation ribozyme variant] | 0.434 | 0.89 | 0.75 | 0.862 | 0.865 | 0.86
24 | AUUACCCUGAUUAUCGAGUGA [Fam2.1 aminoacylation ribozyme variant] | 117 | 7.51 | 17.9 | 7.28 | 17.4 | 22
25 | AUUACCCUGCCCAUCGAGUGA [Fam2.1 aminoacylation ribozyme variant] | 38.9 | 2.94 | 5.7 | 3.23 | 5.53 | 6.52
26 | AUUACCCUGCUCAGCGAGUGA [Fam2.1 aminoacylation ribozyme variant] | 18.5 | 2.24 | 3.61 | 2.76 | 3.79 | 4.77

Row | Sequence | self-aminoacylation [1] | self-aminoacylation [2] | self-aminoacylation [3] | self-aminoacylation [4] | self-aminoacylation [5] | self-aminoacylation [6]
27 | AUUACCCUGCUCAUAGAGUGA [Fam2.1 aminoacylation ribozyme variant] | 57.5 | 3.87 | 9.74 | 4.28 | 8.96 | 10.7
28 | AUUACCCUGCUCAUCGAAUGA [Fam2.1 aminoacylation ribozyme variant] | 0.772 | 0.867 | 0.845 | 0.974 | 0.735 | 1.32
29 | AUUACCCUGCUCGUCGAGUGA [Fam2.1 aminoacylation ribozyme variant] | 0.752 | 0.725 | 0.533 | 0.766 | 0.689 | 0.43
30 | AUUACCCUGCUUAUCGAGUGA [Fam2.1 aminoacylation ribozyme variant] | 2.4 | 1.29 | 1.64 | 1.37 | 1.96 | 2.33
31 | AUUACCCUGGAAAUCGAGUGA [Fam2.1 aminoacylation ribozyme variant] | 149 | 8.3 | 19.4 | 8.39 | 20.8 | 22.6
32 | AUUACCCUGGACACCGAGUGA [Fam2.1 aminoacylation ribozyme variant] | 4.62 | 2.15 | 4.14 | 1.83 | 3.5 | 3.99
33 | AUUACCCUGGACAUGGAGUGA [Fam2.1 aminoacylation ribozyme variant] | 57.2 | 3.74 | 8.57 | 3.69 | 9.2 | 10.6
34 | AUUACCCUGGCCAUCCAGUGA [Fam2.1 aminoacylation ribozyme variant] | 35.9 | 4.38 | 7.34 | 4.01 | 8.23 | 7.75
35 | AUUACCCUGGCCAUCGAAUGA [Fam2.1 aminoacylation ribozyme variant] | 1.84 | 1 | 0.928 | 1.31 | 1.4 | 0.331
36 | AUUACCCUGGCCAUCGAGUGG [Fam2.1 aminoacylation ribozyme variant] | 2.71 | 1.26 | 1.72 | 1.17 | 1.95 | 1.66
37 | AUUACCCUGGCCAUCGCGUGA [Fam2.1 aminoacylation ribozyme variant] | 56.3 | 4.28 | 6.31 | 4.81 | 11 | 8.64
38 | AUUACCCUGGCCAUCGGGUGA [Fam2.1 aminoacylation ribozyme variant] | 49.1 | 3.8 | 8.01 | 6.42 | 9.65 | 11.8
39 | AUUACCCUGGCCCUCGAGUGA [Fam2.1 aminoacylation ribozyme variant] | 24.1 | 2.5 | 4.04 | 3.42 | 4.5 | 3.6
40 | AUUACCCUGGGCAACGAGUGA [Fam2.1 aminoacylation ribozyme variant] | 57.4 | 3.81 | 7.64 | 4 | 10.3 | 10.3
41 | AUUACCCUGGGCAUCAAGUGA [Fam2.1 aminoacylation ribozyme variant] | 2.16 | 1.16 | 1.76 | 1.37 | 1.73 | 1.64
42 | AUUACCCUGGGCAUGGAGUGA [Fam2.1 aminoacylation ribozyme variant] | 40.7 | 3.35 | 7.29 | 3.13 | 8.39 | 8.01
43 | AUUACCCUGGGCCUCGAGUGA [Fam2.1 aminoacylation ribozyme variant] | 22.6 | 2.41 | 3.15 | 2.61 | 3.74 | 4.65
44 | AUUACCCUGGUAACCGAGUGA [Fam2.1 aminoacylation ribozyme variant] | 96.5 | 5.22 | 12.5 | 5.58 | 12.2 | 14.2
45 | AUUACCCUGGUAAUCAAGUGA [Fam2.1 aminoacylation ribozyme variant] | 16.1 | 1.71 | 3.27 | 1.73 | 3.14 | 3.48
46 | AUUACCCUGGUAAUCGAGAGA [Fam2.1 aminoacylation ribozyme variant] | 0.58 | 1.02 | 0.722 | 0.78 | 0.723 | 0.573
47 | AUUACCCUGGUAAUCGAGUGU [Fam2.1 aminoacylation ribozyme variant] | 19.2 | 2.17 | 5.16 | 2.22 | 5.04 | 4.99
48 | AUUACCCUGGUAAUCUAGUGA [Fam2.1 aminoacylation ribozyme variant] | 86.4 | 5.57 | 13 | 5.92 | 12.4 | 15.9
49 | AUUACCCUGGUAAUGGAGUGA [Fam2.1 aminoacylation ribozyme variant] | 55.9 | 3.32 | 8.43 | 3.73 | 8.53 | 9.08
50 | AUUACCCUGGUCAACGACUGA [Fam2.1 aminoacylation ribozyme variant] | 0.635 | 0.653 | 0.47 | 0.66 | 0.523 | 0.514
51 | AUUACCCUGGUCAACGAGUGA [Fam2.1 aminoacylation ribozyme variant] | 22.4 | 3.43 | 6.11 | 3.6 | 5.99 | 7.31
